Measurements taken from IntAct's records for PubMed 29892012.

B1: Transcription factor RFX3 (Homo sapiens), P48380 (parent)
chain: MQTSETGSDTGSTVTLQTSVASQAAVPTQVVQQVPVQQQVQQVQTVQQVQHVYPAQVQYVEGSDTVYTNGAIRTTTYPYTETQMYSQNTGGNYFDTQGSSAQVTTVVSSHSMVGTGGIQMGVTGGQLISSSGGTYLIGNSMENSGHSVTHTTRASPATIEMAIETLQKSDGLSTHRSSLLNSHLQWLLDNYETAEGVSLPRSTLYNHYLRHCQEHKLDPVNAASFGKLIRSIFMGLRTRRLGTRGNSKYHYYGIRVKPDSPLNRLQEDMQYMAMRQQPMQQKQRYKPMQKVDGVADGFTGSGQQTGTSVEQTVIAQSQHHQQFLDASRALPEFGEVEISSLPDGTTFEDIKSLQSLYREHCEAILDVVVNLQFSLIEKLWQTFWRYSPSTPTDGTTITESSNLSEIESRLPKAKLITLCKHESILKWMCNCDHGMYQALVEILIPDVLRPIPSALTQAIRNFAKSLEGWLSNAMNNIPQRMIQTKVAAVSAFAQTLRRYTSLNHLAQAARAVLQNTSQINQMLSDLNRVDFANVQEQASWVCQCDDNMVQRLETDFKMTLQQQSTLEQWAAWLDNVMMQALKPYEGRPSFPKAARQFLLKWSFYSSMVIRDLTLRSAASFGSFHLIRLLYDEYMFYLVEHRVAQATGETPIAVMGEFGDLNAVSPGNLDKDEGSEVESEMDEELDDSSEPQAKREKTELSQAFPVGCMQPVLETGVQPSLLNPIHSEHIVTSTQTIRQCSATGNTYTAV
partner: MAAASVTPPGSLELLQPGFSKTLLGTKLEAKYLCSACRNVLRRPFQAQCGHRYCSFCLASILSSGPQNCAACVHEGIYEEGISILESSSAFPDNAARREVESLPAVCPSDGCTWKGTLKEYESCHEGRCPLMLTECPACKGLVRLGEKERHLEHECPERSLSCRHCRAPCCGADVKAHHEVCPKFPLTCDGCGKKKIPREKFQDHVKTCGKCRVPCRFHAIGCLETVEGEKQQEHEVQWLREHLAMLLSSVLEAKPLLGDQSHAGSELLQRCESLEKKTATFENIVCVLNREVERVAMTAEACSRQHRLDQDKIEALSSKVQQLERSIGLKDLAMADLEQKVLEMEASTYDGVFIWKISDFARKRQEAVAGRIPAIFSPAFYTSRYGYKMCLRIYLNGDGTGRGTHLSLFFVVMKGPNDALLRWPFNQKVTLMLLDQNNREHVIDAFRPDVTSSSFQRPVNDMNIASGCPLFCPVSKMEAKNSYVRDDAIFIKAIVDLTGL
B2: SOSS complex subunit C (Homo sapiens), Q9NRY2 (parent)
chain: MAANSSGQGFQNKNRVAILAELDKEKRKLLMQNQSSTNHPGASIALSRPSLNKDFRDHAEQQHIAAQQKAALQHAHAHSSGYFITQDSAFGNLILPVLPRLDPE
B3: Ribosome-recycling factor, mitochondrial (Homo sapiens), Q96E11 (parent)
chain: MALGLKCFRMVHPTFRNYLAASIRPVSEVTLKTVHERQHGHRQYMAYSAVPVRHFATKKAKAKGKGQSQTRVNINAALVEDIINLEEVNEEMKSVIEALKDNFNKTLNIRTSPGSLDKIAVVTADGKLALNQISQISMKSPQLILVNMASFPECTAAAIKAIRESGMNLNPEVEGTLIRVPIPQVTREHREMLVKLAKQNTNKAKDSLRKVRTNSMNKLKKSKDTVSEDTIRLIEKQISQMADDTVAELDRHLAVKTKELLG
partner: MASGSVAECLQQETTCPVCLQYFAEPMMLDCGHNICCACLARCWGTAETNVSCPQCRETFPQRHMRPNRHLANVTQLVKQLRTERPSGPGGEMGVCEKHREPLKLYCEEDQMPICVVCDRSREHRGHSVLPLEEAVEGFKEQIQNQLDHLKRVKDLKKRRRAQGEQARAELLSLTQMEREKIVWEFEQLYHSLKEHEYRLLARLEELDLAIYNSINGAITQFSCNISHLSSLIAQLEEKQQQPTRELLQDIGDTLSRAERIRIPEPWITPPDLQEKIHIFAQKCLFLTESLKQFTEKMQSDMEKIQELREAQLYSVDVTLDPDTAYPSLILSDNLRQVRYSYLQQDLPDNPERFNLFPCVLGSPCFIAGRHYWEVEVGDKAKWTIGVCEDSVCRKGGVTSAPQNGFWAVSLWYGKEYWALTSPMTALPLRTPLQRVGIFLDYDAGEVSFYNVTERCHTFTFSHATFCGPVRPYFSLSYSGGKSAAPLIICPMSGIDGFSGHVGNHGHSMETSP
B4: Disks large-associated protein 2 (Homo sapiens), Q9P1A6 (parent)
chain: MGTAQVLPGILQKHCCILPDRNTESQCTLCGEPEEEEAGDLVQPGISFPGPAEEDLDPQYSWSPTQHFNEERYSPAPRSMKGLSGSRTQPPLCSGHTCGLAPPEDCEHLHHGPDARPPYLLSPADSCPGGRHRCSPRSSVHSECVMMPVVLGDHVSSSTFPRMHYSSHYDTRDDCAVAHAGAKINRIPANLLDQFEKQLPLHRDGFHTLQYQRTSAAAEQRSESPGRIRHLVHSVQKLFTKSHSLEGSSKSNANGTKADGRADDHHHAHHAKHSKRSKSKERKPEGKPRPGMSSWWSSDDNLDSDSTYRTPSVLNRHHLGPVAHCYPDALQSPFGDLSLKTSKSNNDVKCSACEGLALTPDAKYLKRSSWSTLTVSQAKEAYRKSSLNLDKPLLHQDAKPALRPCHYLQVPQDEWGGYPTGGKDEEIPCRRMRSGSYIKAMGDEESGESDSSPKTSPKSAILPEPLLKSIGQRPLGEHQTQTYLQAASDVPVGHSLDPAANYNSPKFRSRNQSYMRAVSTLSQASCVSQVSEAEINGQFESVCESVFSEVESQAMDALDLPGCFRTRSHSYLRAIQAGYSQDDECIPMMTPSDITSTIRSTAAVSYTNYKKTPPPVPPRTTSKPLISVTAQSSTESTQDAYQDSRAQRMSPWPQDSRGLYNSTDSLDSNKAMNLALETAAAQRHLPESQSSSVRTSDKAILVSKAEELLKSRCSSIGIQDSEFPEHQPYPRSDVETATDSDTESRGLREYHSVGVQVEDEKRHGRFKRSNSVTAAVQADLELEGFPGHITTEDKGLQFGSSFQRHSEPSTPTQYSAVRTVRTQGLFSYREDYRTQVDTSTLPPPDPWLEPAIDTVETGRMSPCRRDGSWFLKLLHAETKRMEGWCKEMEREAEENDLSEEILGKIRSAVGSAQLLMSQKFQQFYWLCQQNMDPSAMPRPTSQDLAGYWDMLQLSIEDVSMKFDELQRLRLNDWKMMESPERKEERKVPPPIPKKPPKGKFPITREKSLDLPDRQRQEARRRLMAAKRAASFRQNSASERADSIEIYIPEAQTRL
partner: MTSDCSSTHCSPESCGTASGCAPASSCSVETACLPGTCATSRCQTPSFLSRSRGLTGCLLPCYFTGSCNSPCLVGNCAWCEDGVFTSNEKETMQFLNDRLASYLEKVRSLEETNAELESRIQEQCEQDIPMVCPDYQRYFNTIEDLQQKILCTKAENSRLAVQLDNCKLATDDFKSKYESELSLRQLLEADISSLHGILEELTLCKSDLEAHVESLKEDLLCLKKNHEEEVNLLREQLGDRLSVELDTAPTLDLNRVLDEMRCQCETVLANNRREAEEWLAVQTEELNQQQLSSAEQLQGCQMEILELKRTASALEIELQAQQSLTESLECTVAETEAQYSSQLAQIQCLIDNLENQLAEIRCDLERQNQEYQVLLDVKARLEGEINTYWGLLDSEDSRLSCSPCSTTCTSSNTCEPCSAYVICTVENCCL

Variants of: B1
Conditions: with traf2_human TRAF2, Q12933

Q: For S387C, which “effect of a mutation on the interaction” value is on record?
A: with no effect

Variants of: B2
Conditions: with rbpms_human RBPMS

Q: Which “effect of a mutation on the interaction” value does the source give for MAANSSGQGFQNKNRVAILAELDKEKRTLLMQNQSSTNHPGASIALSRPSLNKDFRDHAEQQHIAAQQKAALQHAHAHSSGYFITQDSAFGNLILPVLPRLDPE [K28T] here?
A: with no effect

Variants of: B3
Conditions: with tri27_human TRIM27, P14373

Q: Which “effect of a mutation on the interaction” value does the source give for MALGLKCFRMVHPTFRNYLAASIRPVSEVTLKTVHERQHGHRQYMAYSAVPVRHFATKKAKAKGKGQSQTRVNINAALVEDIINLEEVNEEMKSVIEALKDNFNKTLNIRTSPGSLDKIAVVTADGKLALNQISQISMKSPQLILVNMASFPECTAAAIKAIRESGMNLNPEVEETLIRVPIPQVTREHREMLVKLAKQNTNKAKDSLRKVRTNSMNKLKKSKDTVSEDTIRLIEKQISQMADDTVAELDRHLAVKTKELLG [G175E] here?
A: disrupting interaction strength

Variants of: B4
Conditions: with KRT40, Q6A162

Q: How did the “effect of a mutation on the interaction” value turn out when R818T was run?
A: with no effect
